Assay results from patent US20240366624A1, “METHODS AND COMPOSITIONS FOR TREATING THROMBOTIC DISEASE” (Washington University, priority 2023, published 2024).

Target: T1, ERO1α (Homo sapiens, UniProt Q96HE7)
T1 sequence (Q96HE7 24-468): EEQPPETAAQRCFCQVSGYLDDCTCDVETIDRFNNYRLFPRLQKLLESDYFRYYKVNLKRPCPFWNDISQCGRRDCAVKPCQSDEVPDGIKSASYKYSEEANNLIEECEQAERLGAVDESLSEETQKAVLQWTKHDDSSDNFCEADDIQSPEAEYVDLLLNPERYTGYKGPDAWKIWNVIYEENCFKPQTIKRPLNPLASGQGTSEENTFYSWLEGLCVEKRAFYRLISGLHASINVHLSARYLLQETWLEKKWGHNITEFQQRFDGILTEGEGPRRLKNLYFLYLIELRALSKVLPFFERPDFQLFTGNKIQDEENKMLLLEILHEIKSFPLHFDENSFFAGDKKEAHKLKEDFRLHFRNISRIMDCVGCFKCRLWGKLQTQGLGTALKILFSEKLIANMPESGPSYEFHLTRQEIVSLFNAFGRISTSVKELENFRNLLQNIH
Assay: Bio-layer interferometry, STIM1 on biotinylated ERO1α biosensor
Assay type: binding
Protocol: FIG. 11(A-Q) is an exemplary embodiment of ERO1α (endoplasmic reticulum oxidoreductase 1α) regulating the function of Ca^2+ signaling molecules, STIM1 (stromal interaction molecule 1) and SERCA2 (sarco/endoplasmic reticulum Ca^2+ ATPase 2), and enhancing cytosolic Ca^2+ levels during platelet activation in accordance with the present disclosure. FIG. 11A: Mass spectrometric analysis was performed to identify proteins interacting with ERO1α in resting and thrombin-activated human platelets. […] FIG. 11B and FIG. 11C: Immunoprecipitation of ERO1α with lysates of resting and thrombin (Thr)-activated human platelets, followed by immunoblotting and densitometry. FIG. 11(D-F): Ca^2+ release and influx of wild type (WT) and Ero1α-null platelets were assessed in response to 0.1 U/mL thrombin, 2 μM A23187, or 20 μM thapsigargin (TG), followed by the addition of 1 mM CaCl2. The Ca^2+ signal was quantified by the area under the curve (AUC). […] After incubation with a different concentration of wtSTIM1 and mutant STIM1 (mSTIM1), the specific interaction between ERO1α and STIM1 was measured by subtracting the nonspecific binding. The dissociation constant, KD, was calculated from the Kon and Koff values. […] Please note that the unmodified peptide was not detected. […] P values determined by unpaired Student t test. […]

KD, ERO1α binding to STIM1: minimal and not concentration dependent
B1: mutant STIM1: STIM1 with Cys49 and Cys56 mutated to Ser (protein)
chain: LSHSHSEKATGTSSGANSEESTAAEFSRIDKPLSHSEDEKLSFEAVRNIHKLMDDDANGDVDVEESDEFLREDLNYHDPTVKHSTFHGEDKLISVEDLWKAWKSSEVYNWTVDEVVQWLITYVELPQYEETFRKLQLSGHAMPRLAVTNTTMTGTVLKMTDRSHRQKLQLKALDTVLFGPPLLTRHNHLKD
